Where a chain is given by its changes, count along the chain named. Names and notes keep the numbering of the source. Values joined by “and” are separate entries in the source; they are usually repeats but may differ in a detail not shown here. Equal values may be shown once.
T1: Raji B cell line (Homo sapiens, UniProt P15391)
T1 construct: the CD19 protein is expressed on the surface of tumor cell lines of B cell origin; host or cells: Raji (human Burkitt's lymphoma B cell line)
T1 sequence (P15391 20-556): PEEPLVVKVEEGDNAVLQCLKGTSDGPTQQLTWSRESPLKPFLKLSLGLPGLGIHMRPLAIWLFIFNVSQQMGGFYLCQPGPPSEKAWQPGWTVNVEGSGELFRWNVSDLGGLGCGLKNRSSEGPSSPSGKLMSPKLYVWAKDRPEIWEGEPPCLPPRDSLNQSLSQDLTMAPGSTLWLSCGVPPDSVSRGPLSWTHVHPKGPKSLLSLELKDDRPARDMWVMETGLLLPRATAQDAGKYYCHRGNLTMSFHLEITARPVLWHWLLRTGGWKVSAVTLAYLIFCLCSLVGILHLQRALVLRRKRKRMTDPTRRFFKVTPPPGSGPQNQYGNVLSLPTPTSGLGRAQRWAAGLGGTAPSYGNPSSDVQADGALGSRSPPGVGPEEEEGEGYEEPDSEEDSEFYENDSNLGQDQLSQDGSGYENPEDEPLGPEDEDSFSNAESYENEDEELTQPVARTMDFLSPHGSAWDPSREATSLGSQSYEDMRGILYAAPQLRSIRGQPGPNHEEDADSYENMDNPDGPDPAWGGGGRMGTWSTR

B1: 21D4a: human monoclonal anti-CD19 antibody, VH SEQ ID NO: 1 and VL SEQ ID NO: 9 (antibody, listed as Homo sapiens, V domains shown)
VH: EVQLVQSGAEVKKPGESLKISCKGSGYSFSSSWIGWVRQMPGKGLEWMGIIYPDDSDTRYSPSFQGQVTISADKSIRTAYLQWSSLKASDTAMYYCARHVTMIWGVIIDFWGQGTLVTVSS
VL: AIQLTQSPSSLSASVGDRVTITCRASQGISSALAWYQQKPGKAPKLLIYDASSLESGVPSRFSGSGSGTDFTLTISSLQPEDFATYYCQQFNSYPFTFGPGTKVDIK
B2: 13F1: human monoclonal anti-CD19 antibody, VH SEQ ID NO: 6 and VL SEQ ID NO: 14 (antibody, listed as Homo sapiens, V domains shown)
VH: EVQLVQSGAEVKKPGESLQISCKGSGYTFTNYWIAWVRQMPGKGLEWMGIIYPGDSDTRYSPSFQGQVTISADKSISTAYLQWSGLKASDTAMYYCARQGYSSGWRSYYGMGVWGQGTTVTVSS
VL: B1 VL with F96H, P100Q, V104L, D105E
B3: 46E8: human monoclonal anti-CD19 antibody, VH SEQ ID NO: 7 and VL SEQ ID NO: 15 (antibody, listed as Homo sapiens, V domains shown)
VH: B2 VH
VL: B1 VL with F96H, P100Q, V104L, D105E
B4: 5G7-N19Q: 5G7 with N-I-S sequence starting at position 19 changed to Q-I-S (antibody, V domains shown)
VH: B1 VH with K19Q, S30T, S32Y, D54G, R77N, H99G, T101S, I108M, F110V, L116T
VL: B1 VL with F96W, P100Q, D105E
B5: 5G7-N19K: 5G7 with N-I-S sequence starting at position 19 changed to K-I-S (antibody, V domains shown)
VH: B1 VH with S30T, S32Y, D54G, R77N, H99G, T101S, I108M, F110V, L116T
VL: B1 VL with F96W, P100Q, D105E
B6: 5G7: human monoclonal anti-CD19 antibody, VH SEQ ID NO: 5 and VL SEQ ID NO: 13 (antibody, listed as Homo sapiens, V domains shown)
VH: B1 VH with K19N, S30T, S32Y, D54G, R77N, H99G, T101S, I108M, F110V, L116T
VL: B1 VL with F96W, P100Q, D105E

Columns and labels:
[1] = Capillary isoelectric focusing; type: physicochemical; conditions: capillary isoelectric focusing kit assay; listed as fucosylated 21D4a
[2] = Differential scanning calorimetry; type: physicochemical; conditions: 2.3 μM in PBS pH 7.4, 30 to 95° C. at 1° C./min
Description: The thermal stability of the anti-CD19 monoclonal antibodies were compared using calorimetric analysis of their melting temperatures.
Calorimetric measurements of melting Temperatures™ were carried out on a VP-Capillary DSC differential scanning microcalorimeter platform that is combined with an autosampler (MicroCal LLC, Northampton, Mass., USA). Sample cell volume is 0.144 mL. Denaturation data on the glycosylated and deglycosylated forms of the antibodies was obtained by heating the samples, at a concentration of 2.3 μM, from 30 to 95° C. at a rate of 1° C./min. The protein samples were present in phosphate-buffered saline (PBS) at pH 7.4. The same buffer was used in the reference cell to obtain the molar heat capacity by comparison. The observed thermograms were baseline corrected and normalized data analyzed based on a 2-state model, using the software Origin v7.0.

Raji B cell line = target: T1, Raji B cell line; experiment: Flow cytometry binding to Raji cells
Description: Binding of the CD19 HuMAbs by flow cytometry to the B cell tumor lines Raji and Daudi, or to a CHO-CD19 transfected cell line was assessed. CHO cells were transfected with an expression plasmid containing the full length cDNA encoding the transmembrane form of CD19. […] A known murine anti-CD19 antibody was used as a positive control. The cells were washed and detected by either a phycoerythrin-labeled anti-human or anti-mouse secondary antibody and analyzed by flow cytometry. The results for binding to the CHO-CD19 cell line, Daudi B cell line, Raji B cell line and an expanded binding set against the Raji B cell line are shown in FIGS. 25A, 25B, 25C and 25D, respectively. […] All results are shown as measured by the geometric mean fluorescent intensity (GMFI) of staining.

[3] = Chemical denaturation by fluorescence spectroscopy; type: physicochemical; conditions: guanidinium hydrochloride in PBS, 24 hours, 2 μM antibody
Description: The stability of anti-CD19 monoclonal antibodies were compared by measuring the midpoint of chemical denaturation by fluorescence spectroscopy.
Fluorescence measurements of chemical denaturation were performed on a SPEX Fluorolog 3.22 with a Micromax plate reader (SPEX, Edison, N.J.). The measurements were performed on antibody samples that had been left for 24 hours to equilibrate in 16 different concentrations of guanidinium hydrochloride in PBS buffer. The measurements were made in black, low volume, non-binding surface 384-well plates (Corning, Acton, Mass.) and required 2 μM of antibody in a well volume of 12 μL Fluorescence was excited at 280 nm and the emission spectra were measured between 300 and 400 nm. The scan speed was 1 second per nm and slits were set to 5 nm bandpass. A buffer blank was performed using PBS and automatically subtracted from the data.

Molecule | observed pI values [1] | Thermo Stability Tm1 [2] [°C] | binding by flow cytometry (GMFI) (Raji B cell line) | Unfolding Midpoint [3] [M] | Aggregation Peak [3] [M]
B1 | 8.44 pH and 8.21 pH | 69.7 | bound to the Raji B cell line | 2.97 | 
B2 |  |  | bound to the Raji B cell line |  | 
B3 |  | 66.4 |  | 2.43 | 2.16
B4 |  |  | bound to the Raji B cell line |  | 
B5 |  |  | bound to the Raji B cell line |  | 
B6 |  | 68.5 | bound to the Raji B cell line | 2.91 | 

Source: patent US20100104509A1, “HUMAN ANTIBODIES THAT BIND CD19 AND USES THEREOF” (Medarex, Inc., priority 2006, published 2010)
